Data taken from paper PMC3912023.

Legend:
[1] = target: CorA, endogenously expressed, purified from Methylomicrobium album BG8 (Methylomicrobium album BG8); experiment: SEC; calibrated Superdex 75 16/60 gel filtration, 40 mM Tris-HCl pH 8.0, 0.5 M NaCl; data not shown
[2] = target: Recombinant CorA (without the predicted signal peptide) (Methylomicrobium album BG8); experiment: SEC; calibrated Superdex 75 16/60 gel filtration, 20 mM Tris-HCl pH 7.5, 1 mM CaCl2; data not shown

Substance | stoichiometry N [1] | stoichiometry N [2]
CorA, endogenously expressed, purified from Methylomicrobium album BG8 (natural protein) | 2 | –
Recombinant CorA (without the predicted signal peptide) (natural protein) | – | 2
